Measurements: the nanobody polyreactivity screen of Harvey et al. (2022)

Assay: yeast display, Sf9 membrane polyspecificity reagent, FACS + sequencing; frameworks hold sequencing errors
Outline: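 Sorting gates, low and high (top ~1%), were placed on anti-HA fluorescence to track expression and on streptavidin fluorescence to track reagent binding. A clone's polyreactivity label is taken from the gate it came out of. The reagent was 10% biotinylated, detergent-solubilized Sf9 membrane, applied for 1 hour at 4 °C to galactose-induced yeast display cells.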

Sequence | polyreactivity (PSR sort gate)
QVQLVESGGCLVQAGGSLRLSCAASGRIFVTYAMGWYRQAPGNERELVAAITSRGGRTYYADSVKGRFTISRDYAKNTVYLQMNSLKPEDTAVYYCAASPGPGARYYYWCQGTQVTVSS | high polyreactivity
QVQLVESGGCLVQAGGSLRLSCAASGRIIDFYTLGWYRQAPGKERELVAGINGSGASTYYADSVKGRFTISRDNAKNTVYLQMNSLKPEDTAVYYCAKDPGYYYDYDYWGQGTQVTVSS | low polyreactivity
QVQLVESGGCLVQAGGSLRLSCAASGRISGFNAMGWYRQAPGKERELVAANSYRGGSTYADSVKGRFTISRVNAKNTVYLQMNSLKPEDTAVYYCAAQSYWTFHTYYYWGQGTQVTVSS | low polyreactivity
QVQLVESGGCLVQAGGSLRLSCAASGRNIAYNAMGWSRQAPGKERELVASISSGGSTFYADSVKGRFTISRDNAKNTVYLQMNSLKPEDTAVYYCAKGGYWGQGTQVSVSS | high polyreactivity
QVQLVESGGCLVQAGGSLRLSCAASGRTFRRYAMGWYRQAPGKERELVASITWRGGRTYYADSVKGRFTISRDNAKNTVYLQMNSLKPEDTAVYYCAAEDYQLPGYRRTHVEKMDYWGQGTQVTVSS | low polyreactivity
QVQLVESGGCLVQAGGSLRLSCAASGRTFSPNAMGWYRQAPGKERELVAAISWISGGRTYYADSVKGRFTISRDNAKNTVYLQMNSLKPEDTAVYYCAAEYYYTYGYWGQGTQVTVSS | high polyreactivity
QVQLVESGGCLVQAGGSLRLSCAASGRTFYTNGMGWYRQAPGKEREFVAGITYRGGGTYYADSVKGRFTISRDNAQNTVYLQMNSLKPEDTAVYYCAARYYRDYRWYTYAYDYWGQGTQVTVSS | high polyreactivity
QVQLVESGGCLVQAGGSLRLSCAASGRTLDFNVLGWYRPAPGQERELVAAITWSGGSTYYADSVKGRFTISRDNAQNTVYLQMNSLKQEDTAGYYCAAKALYAYRLYDYSGQGTQVTVSS | high polyreactivity
QVQLVESGGCLVQAGGSLRLSCAASGRTSTGYSMGWYRQAPGKERELVAGIDKIGGRTYYADSVKGRFTISRDNAKNTVYLQMNSLKPEDTAVYYCAVKTSPRRYYWGQGTQVTVSS | high polyreactivity
QVQLVESGGCLVQAGGSLRLSCAASGSIFGAYVMGWYRQAPGKERELVAAITRRGGSTYYADSVKGRFTISRDNAKNTVYLQMNSLKPEDTAVYYCAARRGAGDGYWGQGTQVTVSS | high polyreactivity
QVQLVESGGCLVQAGGSLRLSCAASGSIFGENAMGWYRQAPGKERELVAAITSGGSTDYADSVKGRFTISRDNAKNTVYLQMNSLKTEDTAVYYCAASGRVGPGYWYDSWGQGTQVTVSS | low polyreactivity
QVQLVESGGCLVQAGGSLRLSCAASGSIFGVNAMGGYRQPPGKDRELVASITGGDSTNYADSVKGRFTISRDNAKNTVYLQMNSLKPEDTAVYYCAKDHYYRYEEGDYWGLGTQVTVSS | low polyreactivity
QVQLVESGGCLVQAGGSLRLSCAASGSIFLSNAMGWYRQAPGKERELVATIDDNGGSTYYADSVKGRFTISRDNAKNTVYLQMNSLKPEDTAVYYCAKQVRVWDLYYYLEEGYWGQGTQVTVSS | low polyreactivity
QVQLVESGGCLVQAGGSLRLSCAASGSIFLTYAMGWYIQAPGKERELVASSTGGGSTNYADSVKGRFTSSRDNAKNTVYLQRNSLKPEDTAVYYCAKKAIVSDQWDKYDYWGQGTQVTVSS | low polyreactivity
QVQLVESGGCLVQAGGSLRLSCAASGSIFRYYNMGWYRQAPGKERELVAVINWSGGSTYYADSVKWRFTISRDNAKNTVYLQMNSLKPEDCAVYYCAICFWRTRRYGADPRTKYDYWGLGTQVTVSS | high polyreactivity
QVQLVESGGCLVQAGGSLRLSCAASGSIFSWYGMSWYRQAPGKERELVAAITWGGGSTYYADSVKGRFTISRDNAKNSVYLQMNSLKPEDTAVYYCEVDYWGQCTQVTVSS | low polyreactivity
QVQLVESGGCLVQAGGSLRLSCAASGSIRSYAMGWYRQAPGKERELVAAITRSGGSTYYADSVKGRFTISRDNAKNTVYLPMKSLKPEDTAVYYCAARYTYSYPLFGSWGQGTQVTVSS | high polyreactivity
QVQLVESGGCLVQAGGSLRLSCAASGSSFTSNSMGWSRHAPGKERELVAAISSCGGSTYYADSVKGRFTISRDNATQTVYIQMNSLKPEDTAVYYCAADVHWPYRYDYWGQGTQVTVSS | low polyreactivity
QVQLVESGGCLVQAGGSLRLSCAASGSTFGLYAKGLYRQAPGTEREFVAAITSTGGSTYFADSVKGRFTISRDNAQNTVYLQLNSLKPEDTAVYDSYADFFVWRYPHYLIFGYWGQGTQVTVSS | low polyreactivity
QVQLVESGGCLVQAGGSLRLSCAASGSTFGYNTMGWYRQAPGKERELDAAITGTGRTNYADSVKGRFTISRDNAKNNVYLQMYSLKPEDTAVYYCNARQAGTRYKYGYYGRYYWGHGTQVTVSS | high polyreactivity
QVQLVESGGCLVQAGGSLRLSCAASGSTFNWNAMGWYRQAPGKERELVAAITSSGARTRYADSVKGRFTISRDNAKNTVYLQMNSLKPEDTAVYYCAAYVYISPSGYYYWGLGTQVTVSS | low polyreactivity
QVQLVESGGCLVQAGGSLRLSCAASGSTFRFYAMGWYRQAPGKERELVATISSSGGTTYYADSVKGRFTISRDNAKNTVYLQMNSLKPEDTAVSYCAKDAFGWGRVYYYRSGYWGHGTQVTVSS | high polyreactivity

Sequence | polyreactivity (PSR sort gate)
QVQLVESGGCLVQAGGSLRLSCAASGSTFRYYAMGWYRQAPGKESELVARITSRAGRTYYADSVKGRFTISRDIAKNTVYLQMNSLKPEDTAVYFCNTRDFSGYVHALSLYDYWGQGTQVTVSS | high polyreactivity
QVQLVESGGCLVQAGGSLRLSCAASGSTFVYNTMGWYRQAPGKERELVASISSDGNTYYADSVKGRFTISRDNAKNTVYLQMNSLKPEDTAVYYCAARYYYDWRFVGYDYWGQGTQVTVSS | low polyreactivity
QVQLVESGGCLVQAGGSLRLSCAASGYIFQWYDMGWYRPAPGKERELVAAISVTTGSTYYADSVKGRFTISRDNAQKTVYLQMNSLKPEDTAVYYCAAVSWYRHDMYYWGHGTQVTVSS | low polyreactivity
QVQLVESGGCLVQAGGSLRLSCAASRRIYYYTMGWYRQPPGKERELGATITSSGSSTYYADSVKGRFTISRDNAMNTVYLQMNSLKPEDTAVYYCAAGDRRYQRRYYYWGQGTQVTVSS | high polyreactivity
QVQLVESGGCLVQAGGSLRLSCAGSGSIFDGYAMGWYRQAPGKERELVADINNGADTYYADSVKGRFTISRDKAKNTVYLQMNTLKTEDTAVYYCAARYGTDTDIQNVARYDYWGQGTQVTVSS | low polyreactivity
QVQLVESGGCLVQAGGSLRLSCASSGITFFEYAMGCYRQAPGKERELVAVITSGGSTNYADSVKGRFTISRDNAKNTVYLQMNSLKPEDTAVYYCNARVVKYRWWYDYYYWGQGTQVTVSS | low polyreactivity
QVQLVESGGCLVQAGGSLRLSCDASGSIFYRNVIGWYRQAPGKERELVATISRGGTTNYADSVKGRFTISRDNAKNTVYLQMNSLKPEDTAVYYCAADASSKLYDYWGQGTQVTVSS | low polyreactivity
QVQLVESGGCLVQAGGSLRLSCPASGSTIGKYAMGWYRQAPRKERELFATITVSGGNTNYADSVKGRITISRDNAKITVYLQMNSLKPEDTAVYYCAARKYVAGHKYIMKYWGQGTQVTVSS | low polyreactivity
QVQLVESGGCLVQAGGSLRLSCSASGRTFNWKAMGWYRPAPGKERELVAVITSSGTRTYYADSVKGRFTISRDNAKNTVSLQMNSLKPEDTAVYYCANGETYTGPNSRYGQWKKVYYWGQGTQVTVSS | low polyreactivity
QVQLVESGGCLVQAGGSLRLSSAASGFIFYYNAMGWYRQEPGKESELVATIRGSGGSTYYADSVKGRFTISRDNAKNTVYLQMNSLKPEDTAVYYCAASVQYRRLKKFYYWGQGTQVTVSS | high polyreactivity
QVQLVESGGCLVQAGGSLRLSSAASGITFYLYAMGWYRKAPGKVRELVATISRSGGSTYADSVKGRFTISRDNAKNTVYLQMHSMKPEDTAVYYCNADLLSTGFIAYDYWGQGTQVTVSS | low polyreactivity
QVQLVESGGCLVQAGGSLRLSSAPSGSTFPVNAMGWYRQAAGKERELVAAITYRDGDTYYADSVKGRFTISRDYAKNTVYLQMNSLKPEDTAVYYCNADVGRHGKNSHMDYWGHGTQVTVSS | low polyreactivity
QVQLVESGGCLVQAGGTLRLSCAASGFTFGNNGMGWYRQAPGKERELVATISWSGGSTDADSVKGRFTISRDNAKNTVYLQMNSLKPEDTAVSYCAARPRWYFFSYGRQDDGSWGQGTQVTVSS | low polyreactivity
QVQLVESGGCLVQAGGTLRLSCAASGFTIRSNAMGWYRQAPGKERELVADISHGGGTSYADSVKGRFTISRDNAKNTVYLQRNSLKPEDTAVYYCAADLSTYVNYWWEYYYWGQGSQVTVSS | low polyreactivity
QVQLVESGGCLVQAGGTLRLSCAASGSIFWAYAMGWYRQAPGKERELVAAISRGGTTTYADSVKGRFTISRDNAKNTVYLQMNSLKPEDTAVYYCARRAVYSKRRYDYWGQGTQVTVSS | low polyreactivity
QVQLVESGGCLVQAVGSLRLSCAASAFTFTQYGRGWYRQASGKEREFVATIRFSGDTTYYADSVKRRFTITRDHAKNTAYLQMNRLKPEDPAVYYCNADNRAFFVYPGSNRYDSWGQGTQVTVSS | low polyreactivity
QVQLVESGGCLVQEGGSLRLSCAASGFTFRWYTMGWYRQAPGKERELVASIRYGGGSTYYADSVKGRFTISRDNAKNTVYLQMNSLKPEDTAVYYCAAYVRTYRGYYWKAFDYWGQGTQVTVSS | high polyreactivity
QVQLVESGGCLVQSGGSLRLSCAASGIIISSYAMGWYRQAPGKERELVADIRSGGSTNYADSVKGRFTISRDNAKNTVYLQMNSLKPEDTAVSDCNADTFQWWDSAAVYVIVKYGYWGHGTQVTVSS | low polyreactivity
QVQLVESGGDLVQAGASLRLSCASSGRTFRHNALGRYRQAPGKERYLVATISNRGGTTYYADSVKGRFTISRDNAKNTVYLQMNSLKPEDTAVYYCAARVGVLGYVRYGYWGQGTQVTVSS | low polyreactivity
QVQLVESGGDLVQAGGSLRLSCAASGITFVYNAMGWYRQAPGKERELVAGITWSGSSTYYADSVKGRFTISRDNAKNTVYLQMNSLKPEDTAVYYCAAYLYDRTTRYTYYYWGQGTQVTVSS | high polyreactivity
QVQLVESGGDLVQAGGSLRLSCDASGRTCSANGMGSYRQSTGKERELVAAITRSGGITYYADSVKGRFTISRDNAKNTVYLQMNSLNPEDTADYYCAASVYSLSRRSWMDYWGQGTQVTVST | low polyreactivity
